Assay results as given in publication PMC10476280.
Values joined by “and” are separate entries in the source; they are usually repeats but may differ in a detail not shown here. Equal values may be shown once.

Experiments:
[1] = test system: Scm3(HJURP) (Saccharomyces cerevisiae (W303, SBY3 derivative)); experiment: single-molecule TIRFM residence assay; conditions: yeast whole cell extract, single-molecule TIRFM on surface-tethered DNA; buffer, salt, pH and temperature not given in the material
[2] = test system: Cse4(CENP-A)-GFP (Saccharomyces cerevisiae (W303, SBY3 derivative)); experiment: single-molecule TIRFM endpoint colocalization; conditions: yeast whole cell extract, single-molecule TIRFM on surface-tethered DNA; buffer, salt, pH and temperature not given in the material
[3] = test system: Ndc10-mCherry (CBF3 component) (Saccharomyces cerevisiae (W303, SBY3 derivative)); experiment: single-molecule TIRFM endpoint colocalization; conditions: WT extract; yeast whole cell extract, single-molecule TIRFM on surface-tethered DNA; buffer, salt, pH and temperature not given in the material
[4] = test system: Cse4(CENP-A)-GFP (Saccharomyces cerevisiae (W303, SBY3 derivative)); experiment: single-molecule TIRFM endpoint colocalization; conditions: yeast whole cell extract, single-molecule TIRFM on surface-tethered DNA, buffer, salt, pH and temperature not given in the material
[5] = test system: histone H3 (Saccharomyces cerevisiae (W303, SBY3 derivative)); experiment: single-molecule TIRFM endpoint colocalization; conditions: yeast whole cell extract, single-molecule TIRFM on surface-tethered DNA, buffer, salt, pH and temperature not given in the material

Substance	binding signal (% DNA colocalized) ([4]; WT extract)	binding signal (% DNA colocalized) [4]	binding signal (% DNA colocalized) ([5]; low level)	other results
CEN3 DNA (WT, ~750 bp)	50	19.3	5.5	binding signal (residences per DNA (45 min)) [1]: 0.57; binding signal (% DNA colocalized) [2]: 5 and 8; binding signal (% DNA colocalized) [3]: 70
CEN7 DNA	18	–	–	–
CEN9 DNA	22	–	–	–
Widom-601 DNA	–	–	–	binding signal (% DNA colocalized) [5]: 7.1
Widom-601-CDEIII hybrid	–	3.1	4.1	–
alpha-sat CEN DNA	–	1.7	–	–
